To fix the notation:
B1: t808240 (protein)
chain: MGNTTSIGVVRDCLTSAVGGVAAHVAFQDTLLYQTSAVKPYNLNVPVTPAAVTYPQSANEVAAIVKCASDYDYKVQARSGGHSFGNFGLGGQNGAIVIDMKHFSQFSMDESTFIATIGPGTTLGNLDTELYNAGNRAMAHGICPSIRTGGHLTVGGLGPTSRQWGLALDHVEEVEVVLANSSVVRASDTQNQDVLFAIKGAAASFGIVTEFKVRTEEAPGLAVRYSYSFNLGTPAEKAKLAKDWQAYIAQENLTWKFSSNLIIFDGQIILEGIFFGSKEEYDKLNLEKKFPTSEPGTVLVITNWLGMIGHALEDTILRLIGDSPTWFYAKSLGFTPNTLIFDSTIDEFFDYIHKANAGTLAWSVMLSLEGGAINAVPKNATAYGHRDVLFWVQIFVVNPLGPISQTTYGFTDGLYNILARGVPESAGHAYLGCPDPKMPDAQRAYWRNNYPRLEELKRDLDPKDIFHNPQGVRVAS
B2: t808247 (protein)
chain: MGNTTSIAAGRDCLVSAVGPAHVTFQDALLYQTTAVDPYNLNIPVTPAAVTYPQSAEEIAAVVKCASDYDYKVQARSGGHSFGNYGLGGQNGAIVVDMKHFSQFSMDESTFVATIGPGTTLGDLDTELYNAGGRAMAHGICPTIRTGGHLTVGGLGPTARQWGLALDHIEEVEVVLANSSIVRASNTQNQDILFAVKGAAASFGIVTEFKVRTQEAPGLAVQYSFTFNLGSPAQKAKLVKDWQAFIAQENLSWKFYSNLVIFDGQIILEGIFFGSKEEYDELDLEKRFPTSEPGTVLVLTDWLGMIGHALEDTILKLVGDTPTWFYAKSLGFTPDTLIPDSAIDDFFDYIHKTNAGTLAWFVTLSLEGGAINSVSEDATAYGHRDVLFWFQVFVVNPLGPISQTTYDFTNGLYDVLAQAVPESAGHAYLGCPDPKMPDAQRAYWRSNLPRLEDLKGDLDPKDTFHNPQGVQVGP
B3: t808253 (protein)
chain: B2 chain with D97E, A131T, P232A, A309G
B4: t808238 (protein)
chain: MWLSTMNGSASRRSDPVSRKIVCDGHASAHEVRTDNEAARDVPSRTAVNKERKQGSGPPGAMQRGFHAAHKPNEMVPQDGPLGRTAQLFRLAPACQSEPTRAPGQPSDLRLRQIPLATEQAARTLARMRPARFTFPYGRAAEDDCYLKKEDEGHDQSHPTSVLVGVPPFTRRCAAAETFKDTRARAPGTQPTDTTSTGASPSWTLSPLLSLSATDDSVPSKMGNGQSTPLQQCLNTVCNGRLGCVAFPSDALYQAAWVKPYNLDVPVTPIAVFKPSSTEDVAGAIKCAVASNVHVQAKSGGHSYANFGLGGQDGELMIDLANLQDFHMDKTSWQATFGAGYRLGDLDKKLQANGNRAIAHGTCPGVGIGGHATIGGLGPMSRMWGSALDHVLSVQVVTADGSIKNASESENSDLFWALRGAGASFGVITKFTVKTHPAPGSVVQYTYKISLGSQAQMAPVYAAWQALAGDPKLDRRFSTLFIAEPLGALITGTFYGTKAEYEATGIAARLPSGGTLDLKLLDWLGSLAHIAEVVGLTLGDIPTSFYGKSLALREEDMLDRTSIDGLFRYMGDADAGTLLWFVIFNSEGGAMADTPAGATAYPHRDKLIMYQSYVIGIPTLTKATRDFADGVHDRVRMGAPSANSTYAGYIDRTLSREAAQEFYWGAQLPRLREVKKAWDPKDVFHNPQSVDPAE
B5: t861555 (protein)
chain: MGNTTSIAGRDCLISALGGNSALAVFPNELLWTADVHEYNLNLPVTPAAITYPETAAQIAGVVKCASDYDYKVQARSGGHSFGNYGLGGADGAVVVDMKHFTQFSMDDETYEAVIGPGTTLNDVDIELYNNGKRAMAHGVCPTIKTGGHFTIGGLGPTARQWGLALDHVEEVEVVLANSSIVRASNTQNQDVFFAVKGAAANFGIVTEFKVRTEPAPGLAVQYSYTFNLGSTAEKAQFVKDWQSFISAKNLTRQFYNNMVIFDGDIILEGLFFGSKEQYDALGLEDHFAPKNPGNILVLTDWLGMVGHALEDTILKLVGNTPTWFYAKSLGFRQDTLIPSAGIDEFFEYIANHTAGTPAWFVTLSLEGGAINDVAEDATAYAHRDVLFWVQLFMVNPVGPISDTTYEFTDGLYDVLARAVPESVGHAYLGCPDPRMEDAQQKYWRTNLPRLQELKEELDPKNTFHHPQGVMPA

Numbering of substitutions follows the chain as printed.

One assay concerns CBCVA, THCVA, and CBDVA production; CBGVA residual substrate. Put plainly: In vivo TS activity assay, Example 3 metagenomic CBCAS screen, cultures fed divaric acid. In kind it is cell-based, S. cerevisiae. To be noted: divaric acid fed (Table 12). Here is the method: (§1) An assay to detect TS activity was conducted as follows: each thawed glycerol stock of candidate CBCAS transformants was stamped into a well of YEP+4% dextrose media. Samples were incubated at 30° C. in a shaking incubator for 2 days. A portion of each of the resulting cultures was stamped into a well of YEP+4% galactose+1 mM olivetolic acid (FIG. 1 Structure 6a). Samples were incubated at 20° C. and shaken in a shaking incubator for 4 days. Every 24 hours during those 4 days, 2% galactose and 1 mM olivetolic acid were spiked into the cultures. Sodium citrate buffer adjusted to pH 5.5 was added to each well at a final concentration of 100 mM. Samples were incubated at 20° C. and shaken in a shaking incubator for 2 days. A portion of each of the resulting production cultures was stamped into a well of phosphate buffered saline (PBS). Optical measurements were taken on a plate reader, with absorbance measured at 600 nm and fluorescence at 528 nm with 485 nm excitation. Samples were incubated at 30° C. in a shaking incubator for 2 days. 100% methanol was stamped into the production cultures in half-height deepwell plates. Plates were heat sealed and frozen. Samples were then thawed for 30 min and spun down at 4° C. A portion of the supernatant was stamped into half-area 96 well plates. CBCA, THCA, and CBDA production in the samples was quantified via liquid chromatography-mass spectrometry (LC-MS).
(§2) To explore whether other putative CBCASs may exist in the broader metagenome, a library of 1072 candidate CBCAS genes was designed using the A. niger CBCAS enzyme identified in Example 1 as a reference. Protein sequences were recoded in silico for expression in S. cerevisiae and synthesized in the integrative yeast expression vector shown in FIG. 5. Each candidate enzyme expression construct was transformed into an S. cerevisiae CEN.PK strain that also expressed a prenyltransferase enzyme capable of catalyzing reaction R^4 in FIG. 2. Strain t616313, expressing GFP, was included in the library screen as a negative control for enzyme activity. Strain t807925, expressing the A. niger enzyme identified in Example 1, was included in the library screen as a positive control for enzyme activity. All candidate enzymes in the library, as well as the enzyme expressed by positive control strain t807925, included an N-terminal MFalpha2 signal peptide (SEQ ID NO: 16) (with a methionine residue added at the N-terminus of the MFalpha2 signal peptide) and a C-terminal HDEL signal peptide (SEQ ID NO: 17).
(§3) Based on results of the primary screen, 70 strains were carried forward to a secondary screen to confirm activity observed in the primary screen. The experimental protocol for the secondary screen was identical to the primary screen, except that additional technical replicates were included per strain, and replicate production cultures for each strain were separately fed 1 mM olivetolic acid or 1 mM divaric acid. All strains were screened in quadruplicate (FIGS. 10A-10C, Tables 10 and 11).
For B1, the “Average CBGVA residual substrate” value amounted to 4054.85 µg/L.

Take B2: the “Average CBGVA residual substrate” value is 0.00 µg/L.

Regarding B3, the “Average CBGVA residual substrate” value was determined as 0.00 µg/L.

Take B4: the “Average CBGVA residual substrate” value is 9247.47 µg/L.

Still in this assay, the particulars now being: secondary screen, cultures fed 1 mM divaric acid, S. cerevisiae, quadruplicate, LC-MS.
Take B1: the “Mean CBCVA” value turned out to be 4282.13 µg/L, the “Mean CBDVA” value was 0.00 µg/L and the “Mean THCVA” value stood at 888.75 µg/L.

Take B2: the “Mean CBCVA” value came out at 2651.55 µg/L, the “Mean CBDVA” value stood at 15.16 µg/L and the “Mean THCVA” value came to 1783.19 µg/L.

For the molecule B3, the “Mean CBCVA” value turned out to be 1476.99 µg/L, the “Mean CBDVA” value was found to be 0.00 µg/L and the “Mean THCVA” value amounted to 715.85 µg/L.

In the case of B4, the “Mean CBCVA” value is 1841.90 µg/L, the “Mean CBDVA” value amounted to 0.00 µg/L and the “Mean THCVA” value came to 282.10 µg/L.

Still in this assay, the particulars now being: share of terminal cannabinoid products, cultures fed 1 mM divaric acid.
For the molecule B1, the “% CBCVA” value amounted to 82.81%, the “% CBDVA” value is reported as 0.00% and the “% THCVA” value is recorded as 17.19%.

For the molecule B2, the “% CBCVA” value is recorded as 59.59%, the “% CBDVA” value is 0.34% and the “% THCVA” value was 40.07%.

B3: the “% CBCVA” value stood at 67.35%, the “% CBDVA” value was determined as 0.00% and the “% THCVA” value is recorded as 32.65%.

For the molecule B4, the “% CBCVA” value stood at 86.72%, the “% CBDVA” value is given as 0.00% and the “% THCVA” value is 13.28%.

The next assay deals with CBCA production. Put plainly: In vivo TS activity assay, Example 4 CBCAS enzymes with and without signal peptides, no pH adjustment. In kind it is cell-based. To be noted: strains with (Y) or without (N) N-terminal and C-terminal signal peptides; no pH adjustment at Day 4; S. cerevisiae. Here is the method: as §1
A library of 20 CBCAS enzymes selected from Example 1 and 3 was synthesized, including versions of the CBCAS enzymes with and without the N-terminal MFalpha2 signal peptide (SEQ ID NO: 16) and C-terminal HDEL signal peptide (SEQ ID NO: 17). Each candidate enzyme expression construct was transformed into an S. cerevisiae CEN.PK strain that also expressed a prenyltransferase enzyme capable of catalyzing reaction R^4 in FIG. 2. Strain t861555 expressing the A. niger CBCAS identified in Example 1, carrying both the Mfalpha2 and HDEL signal peptides was included in the library screen as a positive control for enzyme activity. Strain t861565 expressed the same A. niger CBCAS without the Mfalpha2 and HDEL signal peptides.
The strains were screened using the assay described in Example 1 with the following exception: at Day 4 samples were not subjected to a pH adjustment and a further 2 days of incubation at 20° C.
Regarding B5, the “Average CBCA” value was 21237.64 µg/L.

For a further assay, the system named is CBCA, THCA, and CBDA production; CBGA residual substrate. Put plainly: In vivo TS activity assay, Example 3 metagenomic CBCAS screen, cultures fed olivetolic acid. In kind it is cell-based, S. cerevisiae. To be noted: metagenomic CBCAS candidates in S. cerevisiae, secondary screen, fed 1 mM olivetolic acid, quadruplicate. Here is the method:
as §1, §2
The library of candidate CBCAS enzymes was assayed for activity in a primary high-throughput screen using the assay described in Example 1. Production of CBCA, THCA, and/or CBDA in the samples was quantified via LC-MS.
as §3
As for B1, the “Mean CBCA” value is 6248.43 µg/L, the “Mean CBDA” value was 0.00 µg/L and the “Mean THCA” value amounted to 115.70 µg/L.

With B2, the “Mean CBCA” value was 27052.63 µg/L, the “Mean CBDA” value was found to be 420.85 µg/L and the “Mean THCA” value is 1703.93 µg/L.

B3: the “Mean CBCA” value was found to be 15518.14 µg/L, the “Mean CBDA” value came to 63.99 µg/L and the “Mean THCA” value came to 916.93 µg/L.

As to B4, the “Mean CBCA” value is 2934.86 µg/L, the “Mean CBDA” value was 0.00 µg/L and the “Mean THCA” value turned out to be 0.00 µg/L.

The same assay, now with this note: olivetolic acid fed (Table 12).
As to B1, the “Average CBGA residual substrate” value turned out to be 24393.82 µg/L.

With B2, the “Average CBGA residual substrate” value is 0.00 µg/L.

As to B3, the “Average CBGA residual substrate” value turned out to be 0.00 µg/L.

Consider B4, for which the “Average CBGA residual substrate” value stood at 63815.30 µg/L.

Staying with this assay, now noted: share of terminal cannabinoid product profile, fed 1 mM olivetolic acid.
Turning to B1, the “% CBCA” value was 98.18%, the “% CBDA” value was determined as 0.00% and the “% THCA” value stood at 1.82%.

For B2, the “% CBCA” value was determined as 92.72%, the “% CBDA” value is on record as 1.44% and the “% THCA” value was 5.84%.

On to B3, for which the “% CBCA” value is 94.05%, the “% CBDA” value amounted to 0.39% and the “% THCA” value is given as 5.56%.

Turning to B4, the “% CBCA” value amounted to 100.00%, the “% CBDA” value was 0.00% and the “% THCA” value is 0.00%.

These data come from US20230137139A1, “BIOSYNTHESIS OF CANNABINOIDS AND C[…]” (priority 2020, published 2023).
